Test results: publication PMC10177328, “High Intrinsic Oncogenic Potential in the Myc-Box-Deficient Hydra Myc3 Protein”

Target: T1, Hydra Myc3 bHLH-LZ (p13);Hydra Max bHLH-LZ (p13) (Hydra (strain  in the text …, UniProt A0A0H5FMB4;D0EM50 108-197;29-120, |))
T1 sequence 1: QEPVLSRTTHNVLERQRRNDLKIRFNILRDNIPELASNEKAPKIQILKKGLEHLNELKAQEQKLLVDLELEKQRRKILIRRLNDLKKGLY
T1 sequence 2: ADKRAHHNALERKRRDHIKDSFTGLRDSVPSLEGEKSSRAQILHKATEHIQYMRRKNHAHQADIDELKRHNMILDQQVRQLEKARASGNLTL
Test: EMSA; 0-2000 nM protein; EMSA: 10 mM Tris-HCl pH 7.5, 0.5 mM EDTA, 65 mM KCl, 5 mM MgCl2, 1 mM DTT, 100 ug/mL BSA, 10% glycerol, 25 C, 45 min; native 6% PAGE
Conditions: protein: recombinant;recombinant, tags: N-terminal initiator Met, C-terminal His6;N-terminal initiator Met, copies: 1;1, label: 32P, blunt

B1: myc2 promoter E-box 18-mer (dsDNA)
DNA 1: ATAGCTCACGTGTCAATA
DNA 2: TATTGACACGTGAGCTAT
- Kd: 16.3 nM
